The substances below were run against gbrap_human GABARAP (UniProt O95166).
Sequence of gbrap_human GABARAP (O95166 whole entry): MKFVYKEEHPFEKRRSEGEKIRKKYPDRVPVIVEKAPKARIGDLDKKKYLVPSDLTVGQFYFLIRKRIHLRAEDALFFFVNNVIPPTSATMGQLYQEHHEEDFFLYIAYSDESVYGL

Substance	effect of a mutation on the interaction
Pericentriolar material 1 protein (Homo sapiens), Q15154 E1960Q	with no effect
Pericentriolar material 1 protein (Homo sapiens), Q15154 E1960R	with no effect
Pericentriolar material 1 protein (Homo sapiens), Q15154 E1960S	with no effect
Pericentriolar material 1 protein (Homo sapiens), Q15154 E1960T	with no effect
Pericentriolar material 1 protein (Homo sapiens), Q15154 E1960V	decreasing interaction strength
Pericentriolar material 1 protein (Homo sapiens), Q15154 E1960W	with no effect
Pericentriolar material 1 protein (Homo sapiens), Q15154 E1960Y	with no effect
Pericentriolar material 1 protein (Homo sapiens), Q15154 E1961A	with no effect
Pericentriolar material 1 protein (Homo sapiens), Q15154 E1961C	with no effect
Pericentriolar material 1 protein (Homo sapiens), Q15154 E1961D	with no effect
Pericentriolar material 1 protein (Homo sapiens), Q15154 E1961F	with no effect
Pericentriolar material 1 protein (Homo sapiens), Q15154 E1961G	with no effect
Pericentriolar material 1 protein (Homo sapiens), Q15154 E1961H	with no effect
Pericentriolar material 1 protein (Homo sapiens), Q15154 E1961I	with no effect
Pericentriolar material 1 protein (Homo sapiens), Q15154 E1961K	disrupting interaction strength
Pericentriolar material 1 protein (Homo sapiens), Q15154 E1961L	with no effect
Pericentriolar material 1 protein (Homo sapiens), Q15154 E1961M	decreasing interaction strength
Pericentriolar material 1 protein (Homo sapiens), Q15154 E1961N	with no effect
Pericentriolar material 1 protein (Homo sapiens), Q15154 E1961P	decreasing interaction strength
Pericentriolar material 1 protein (Homo sapiens), Q15154 E1961Q	with no effect
Pericentriolar material 1 protein (Homo sapiens), Q15154 E1961R	decreasing interaction strength
Pericentriolar material 1 protein (Homo sapiens), Q15154 E1961S	with no effect
Pericentriolar material 1 protein (Homo sapiens), Q15154 E1961T	with no effect

Substance	effect of a mutation on the interaction
Pericentriolar material 1 protein (Homo sapiens), Q15154 E1961V	decreasing interaction strength
Pericentriolar material 1 protein (Homo sapiens), Q15154 E1961W	with no effect
Pericentriolar material 1 protein (Homo sapiens), Q15154 E1961Y	with no effect
Pericentriolar material 1 protein (Homo sapiens), Q15154 E1967A	with no effect
Pericentriolar material 1 protein (Homo sapiens), Q15154 E1967C	with no effect
Pericentriolar material 1 protein (Homo sapiens), Q15154 E1967D	with no effect
Pericentriolar material 1 protein (Homo sapiens), Q15154 E1967F	with no effect
Pericentriolar material 1 protein (Homo sapiens), Q15154 E1967G	with no effect
Pericentriolar material 1 protein (Homo sapiens), Q15154 E1967H	with no effect
Pericentriolar material 1 protein (Homo sapiens), Q15154 E1967I	with no effect
Pericentriolar material 1 protein (Homo sapiens), Q15154 E1967K	with no effect
Pericentriolar material 1 protein (Homo sapiens), Q15154 E1967L	with no effect
Pericentriolar material 1 protein (Homo sapiens), Q15154 E1967M	with no effect
Pericentriolar material 1 protein (Homo sapiens), Q15154 E1967N	with no effect
Pericentriolar material 1 protein (Homo sapiens), Q15154 E1967P	with no effect
Pericentriolar material 1 protein (Homo sapiens), Q15154 E1967Q	with no effect
Pericentriolar material 1 protein (Homo sapiens), Q15154 E1967R	with no effect
Pericentriolar material 1 protein (Homo sapiens), Q15154 E1967S	with no effect
Pericentriolar material 1 protein (Homo sapiens), Q15154 E1967T	with no effect
Pericentriolar material 1 protein (Homo sapiens), Q15154 E1967V	with no effect
Pericentriolar material 1 protein (Homo sapiens), Q15154 E1967W	with no effect
Pericentriolar material 1 protein (Homo sapiens), Q15154 E1967Y	with no effect
Pericentriolar material 1 protein (Homo sapiens), Q15154 F1963A	disrupting interaction strength

Substance	effect of a mutation on the interaction
Pericentriolar material 1 protein (Homo sapiens), Q15154 F1963C	disrupting interaction strength
Pericentriolar material 1 protein (Homo sapiens), Q15154 F1963D	disrupting interaction strength
Pericentriolar material 1 protein (Homo sapiens), Q15154 F1963E	disrupting interaction strength
Pericentriolar material 1 protein (Homo sapiens), Q15154 F1963G	disrupting interaction strength
Pericentriolar material 1 protein (Homo sapiens), Q15154 F1963H	disrupting interaction strength
Pericentriolar material 1 protein (Homo sapiens), Q15154 F1963I	disrupting interaction strength
Pericentriolar material 1 protein (Homo sapiens), Q15154 F1963K	disrupting interaction strength
Pericentriolar material 1 protein (Homo sapiens), Q15154 F1963L	disrupting interaction strength
Pericentriolar material 1 protein (Homo sapiens), Q15154 F1963M	disrupting interaction strength
Pericentriolar material 1 protein (Homo sapiens), Q15154 F1963N	disrupting interaction strength
Pericentriolar material 1 protein (Homo sapiens), Q15154 F1963P	disrupting interaction strength
Pericentriolar material 1 protein (Homo sapiens), Q15154 F1963Q	disrupting interaction strength
Pericentriolar material 1 protein (Homo sapiens), Q15154 F1963R	disrupting interaction strength
Pericentriolar material 1 protein (Homo sapiens), Q15154 F1963S	disrupting interaction strength
Pericentriolar material 1 protein (Homo sapiens), Q15154 F1963T	disrupting interaction strength
Pericentriolar material 1 protein (Homo sapiens), Q15154 F1963V	disrupting interaction strength
Pericentriolar material 1 protein (Homo sapiens), Q15154 F1963W	with no effect
Pericentriolar material 1 protein (Homo sapiens), Q15154 F1963Y	decreasing interaction strength
Pericentriolar material 1 protein (Homo sapiens), Q15154 G1952A	with no effect
Pericentriolar material 1 protein (Homo sapiens), Q15154 G1952C	with no effect
Pericentriolar material 1 protein (Homo sapiens), Q15154 G1952D	with no effect
Pericentriolar material 1 protein (Homo sapiens), Q15154 G1952E	with no effect
